B1: NI-502.4P3 (antibody, V domains shown)
VH: EVQLVQSGAEVKKPGESLKISCKVSGYDFSKYWIGWVRQMPGKGLEWMGLIYPGDSDTRYSPSLEGQVSISADKSISAAYLQFSSLKASDSAMYYCVRKGYSAYLGGWFDPWGQGTLVTVSS
VL: DIQLTQSPDSLAASLGERVTINCRSSQNIFYNSNNKNFLAWYQQKAGQSPKLLIYWASTRESGVPDRFSGSGSGTDFTLTISGLQAGDVAVYFCQQYFTDAPTFGGGTKVEIK
B2: NI-502.8H1 (antibody, V domains shown)
VH: EVQLVESGGGLVQPGGSLRLSCAASGFTFSIYTMSWVRQAPGKGLEWVSAILSDGSTYYADSVEGRFTISRDNSKTTLYLQMNSLTAEDTAVYYCTKRVEGSFRGWGQGTLVTVSS
VL: EIVMTQSPGTLSLSPGESATLSCRASQSVSTTYLAWYQQKPGQAPRLLIYGASSRATGIPDRFSGSGSGTDFTLTISRLEPEDFAVYYCQQYGGSRLITFGQGTRLEIK

Target: AD-associated Tau in brain extracts of patients with AD (human, UniProt P10636-8 2-441, limits assumed, pathologically modified (sites not given))
Test: cell-based or functional assay

Chain of AD-associated Tau in brain extracts of patients with AD (P10636 other isoform, or with tags, fused parts or gaps limits assumed): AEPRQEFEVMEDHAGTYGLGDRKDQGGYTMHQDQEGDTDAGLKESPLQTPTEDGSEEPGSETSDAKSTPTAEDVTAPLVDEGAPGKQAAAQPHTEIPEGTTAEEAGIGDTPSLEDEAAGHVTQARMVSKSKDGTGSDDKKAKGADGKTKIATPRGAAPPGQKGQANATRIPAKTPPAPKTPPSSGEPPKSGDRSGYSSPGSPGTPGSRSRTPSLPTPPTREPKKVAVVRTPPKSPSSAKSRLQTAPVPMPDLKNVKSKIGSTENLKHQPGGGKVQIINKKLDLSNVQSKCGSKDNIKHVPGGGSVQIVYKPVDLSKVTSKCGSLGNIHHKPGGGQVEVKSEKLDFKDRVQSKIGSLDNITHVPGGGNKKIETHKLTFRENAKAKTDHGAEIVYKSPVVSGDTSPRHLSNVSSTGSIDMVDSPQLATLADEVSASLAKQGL

Binder	IC50 of Tau aggregation (FRET) in HEK293T Tau biosensor cells seeded with immunodepleted AD brain homogenate
B1	6.5 µg/mL
B2	7.1 µg/mL
